Patent US20230235004A1 (published 2023)

T1: mouse MAdCAM expressed on cells (mouse, UniProt Q61826 22-405)
T1 construct: whole, on cells
T1 sequence (looked up): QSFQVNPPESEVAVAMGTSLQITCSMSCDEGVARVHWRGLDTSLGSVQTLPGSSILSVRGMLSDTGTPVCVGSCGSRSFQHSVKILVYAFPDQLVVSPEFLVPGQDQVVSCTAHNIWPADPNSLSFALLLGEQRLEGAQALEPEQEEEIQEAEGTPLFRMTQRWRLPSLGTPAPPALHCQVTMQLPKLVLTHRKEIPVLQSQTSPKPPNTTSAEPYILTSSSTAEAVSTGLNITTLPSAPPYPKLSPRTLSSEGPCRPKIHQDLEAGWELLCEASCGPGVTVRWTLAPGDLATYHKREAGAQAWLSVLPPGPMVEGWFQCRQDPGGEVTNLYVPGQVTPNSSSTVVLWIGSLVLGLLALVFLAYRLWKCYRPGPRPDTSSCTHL

T2: human MAdCAM expressed on cells (human, UniProt Q13477 19-382)
T2 construct: whole, on cells
T2 sequence (looked up): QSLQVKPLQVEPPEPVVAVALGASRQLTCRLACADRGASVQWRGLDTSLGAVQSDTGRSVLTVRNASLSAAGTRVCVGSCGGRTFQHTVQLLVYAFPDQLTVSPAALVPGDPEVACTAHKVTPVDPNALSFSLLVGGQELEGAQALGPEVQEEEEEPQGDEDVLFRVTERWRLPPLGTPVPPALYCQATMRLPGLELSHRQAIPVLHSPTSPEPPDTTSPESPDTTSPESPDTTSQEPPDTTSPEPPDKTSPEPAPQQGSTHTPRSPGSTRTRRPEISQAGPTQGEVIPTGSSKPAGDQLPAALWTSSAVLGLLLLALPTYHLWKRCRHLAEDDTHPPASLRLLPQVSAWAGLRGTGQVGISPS

T3: human MAdCAM protein (human, UniProt Q13477 19-317, limits assumed)
T3 construct: also called soluble monomeric human MAdCAM; recombinant human MAdCAM
T3 sequence (looked up): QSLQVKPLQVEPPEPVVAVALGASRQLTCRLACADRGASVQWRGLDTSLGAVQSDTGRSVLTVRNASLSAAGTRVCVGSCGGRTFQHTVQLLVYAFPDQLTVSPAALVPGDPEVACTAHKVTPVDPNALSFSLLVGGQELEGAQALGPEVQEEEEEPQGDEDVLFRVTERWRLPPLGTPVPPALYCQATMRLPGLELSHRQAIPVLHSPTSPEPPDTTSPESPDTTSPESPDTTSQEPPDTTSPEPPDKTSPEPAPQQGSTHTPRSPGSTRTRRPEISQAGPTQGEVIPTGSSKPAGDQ

T4: recombinant mouse MAdCAM-1 (mouse, UniProt Q61826 22-364, limits assumed)
T4 construct: also called mMAdCAM-1
T4 sequence (looked up): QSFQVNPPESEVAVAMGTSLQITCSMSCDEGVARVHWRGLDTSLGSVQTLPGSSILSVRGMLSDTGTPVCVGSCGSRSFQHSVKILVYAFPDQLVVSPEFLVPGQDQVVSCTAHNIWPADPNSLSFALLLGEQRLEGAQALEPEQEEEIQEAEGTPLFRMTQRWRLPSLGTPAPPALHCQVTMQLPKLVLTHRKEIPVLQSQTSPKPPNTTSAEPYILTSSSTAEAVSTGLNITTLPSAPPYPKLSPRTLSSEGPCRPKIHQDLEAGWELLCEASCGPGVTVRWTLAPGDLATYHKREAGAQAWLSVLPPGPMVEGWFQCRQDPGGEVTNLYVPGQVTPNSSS


Tests used:
[1] = target: T1, mouse MAdCAM expressed on cells; test: cell binding
[2] = target: T2, human MAdCAM expressed on cells; test: cell binding
[3] = target: T3, human MAdCAM protein; test: Octet
[4] = target: T4, recombinant mouse MAdCAM-1; test: Octet

Binder	binding result [1]	binding result [2]	binding result [3]	binding result [4]
MAdCAM antibody Table 1 clone 20 (scFv) scFv: EVQLLESGGGLVQPGGSLRLSCAASGFTFDDYAMHWVRQAPGKGLEWVSYIDTSSSHLYYADSVKGRFTISRDNSKNTLYLQMNSLRAEDTAVYYCARDEAAAGYYGMDVWGQGTTVTVSSGGGGSGGGGSGGGGSGGGGSDIQMTQSPSSLSASVGDRVTITCQAGQDISNYLNWYQQKPGKAPKLLIYDASNLETGVPSRFSGSGSGTDFTLTISSLQPEDFATYYCQQTYSTPITFGQGTKLEIK	no binding	binds	binds	no binding
MAdCAM antibody Table 1 clone 61 (scFv) scFv: EVQLLESGGGLVQPGGSLRLSCAASEFTFSNAWMSWVRQAPGKGLEWVASISSTSAYIDYADSVKGRFTISRDNSKNTLYLQMNSLRAEDTAVYYCAREVVGATTFDYWGQGTLVTVSSGGGGSGGGGSGGGGSGGGGSDIQMTQSPSSLSASVGDRVTITCRASQSISTWLAWYQQKPGKAPKLLIYAASSLQSGVPSRFSGSGSGTDFTLTISSLQPEDFATYYCQQANAFPPTFGQGTRLEIK	binds	binds	binds	
MAdCAM antibody Table 1 clone 65 (scFv) scFv: QVQLVQSGAEVKKPGASVKVSCKASGYTFTRHWIHWVRQAPGQGLEWMGWINVKTGGAGYAQKFQGRVTMTRDTSTSTVYMELSSLRSEDTAVYYCARESSGWYGTDVWGQGTTVTVSSGGGGSGGGGSGGGGSGGGGSDIQMTQSPSSLSASVGDRATITCRASQSISNYLAWYQQKPGKAPKLLIYAASSLQSGVPSRFSGSGSGTDFTLTISSLQPEDFATYYCQQSNSFPLTFGGGTKVEIK	binds	binds	binds	
MAdCAM antibody Table 1 clone 2 (scFv) scFv: QVQLVQSGAEVKKPGASVKVSCKASGYPFIGYYLHWVRQAPGQGLEWMGIINPSGGSTSYAQKFQGRVTMTRDTSTSTVYMELSSLRSEDTAVYYCAREGRLSYGMDAWGQGTLVTVSSGGGGSGGGGSGGGGSGGGGSDIQMTQSPSSLSASVGDRVTITCRASQSISSYLAWYQQKPGKAPKLLIYGASTLESGVPSRFSGSGSGTDFTLTISSLQPEDFATYYCQQTWGPPFTFGQGTKLEIK	binds	binds	binds	binds
MAdCAM antibody Table 1 clone 64 (scFv) scFv: EVQLLESGGGLVKPGGSLRLSCAASGFAFSSHWMHWVRQAPGKGLEWVAGTSGSGESRDYADFVKGRFTISRDDSKNTLYLQMNSLKTEDTAVYYCARETYYYYYMDVWGKGTTVTVSSGGGGSGGGGSGGGGSGGGGSDIQMTQSPSSLSASVGDRVTITCRASQGISNYLAWYQQKPGKAPKLLIYDAANLEGGVPSRFSGSGSGTDFTLTISSLQPEDFATYYCQQSDIFPPTFGQGTKVEIK	binds	binds	binds	
MAdCAM antibody Table 1 clone 23 (scFv) scFv: EVQLLESGGGLVQPGGSLRLSCAASGFTFSSYAMHWVRQAPGKGLEWVSGISGSGGSAYYADSVKGRFTISRDNSKNTLYLQMNSLRAEDTAVYYCATSQAPVDYYYYGMDVWGQGTTVTVSSGGGGSGGGGSGGGGSGGGGSDIQMTQSPSSLSASVGDRVTITCRASQSISSWLAWYQQKPGKAPKLLIYAASNLQRGVPSRFSGSGSGTDFTLTISSLQPEDFATYYCQQSYSIPITFGQGTKVEIK	no binding	binds	binds	no binding
MAdCAM antibody Table 1 clone 4 (scFv) scFv: QVQLVQSGAEVKKPGASVKVSCKASGGTFSSYAISWVRQAPGQGLEWMGSINPSGDTTSYAQKFQGRVTMTRDTSTSTVYMELSSLRSEDTAVYYCAKDKAQWLVGYFDYWGQGTLVTVSSGGGGSGGGGSGGGGSGGGGSDIQMTQSPSSLSASVGDRVTITCQASQDISNSLNWYQQKPGKAPKLLIYAASSLQSGVPSRFSGSGSGTDFTLTISSLQPEDFATYYCQQSYSSVITFGQGTKVEIK	binds	binds	binds	binds

More lines, now with the values ahead:

binding result [1]	binding result [2]	binding result [3]	binding result [4]	Binder
binds	binds	binds	binds	MAdCAM antibody Table 1 clone 63 (scFv) scFv: EVQLLESGGGLVKPGGSLRLSCAASGFTFDDYAMHWVRQAPGKGLEWVASITSSSAFIDYAASVKGRFTISRDDSKNTLYLQMNSLKTEDTAVYYCARERVDWNSYFDLWGRGTLVTVSSGGGGSGGGGSGGGGSGGGGSEIVMTQSPATLSVSPGERATLSCRASQGISNSYLAWYQQKPGQAPRLLIYGASTRATGIPARFSGSGSGTEFTLTISSLQSEDFAVYYCQQYYTYPPTFGPGTKVDIK
binds	binds	binds		MAdCAM antibody Table 1 clone 1 (scFv) scFv: EVQLLESGGGLVQPGGSLRLSCAASGFTFSSYGMHWVRQAPGKGLEWVAVISDDGSDKYYADSVKGRFTISRDNSKNTLYLQMNSLRAEDTAVYYCTTSKYYYYYGMDVWGQGTTVTVSSGGGGSGGGGSGGGGSGGGGSDIQMTQSPSSLSASVGDRVTITCQASQDISKSLNWYQQKPGKAPKLLIYAASSLQSGVPSRFSGSGSGTDFTLTISSLQPEDFATYYCQQGYSTPLTFGGGTKVEIK
no binding	binds	binds	no binding	MAdCAM antibody Table 1 clone 19 (scFv) scFv: EVQLLESGGGLVQPGGSLRLSCAASGFTFDDYAMHWVRQAPGKGLEWVSGISWNSGSIGYADSVKGRFTISRDNSKNTLYLQMNSLRAEDTAVYYCAKDIVAAGHYYYGMDVWGQGTTVTVSSGGGGSGGGGSGGGGSGGGGSDIQMTQSPSSLSASVGDRVTITCQASQDISNYLNWYQQKPGKAPKLLIYDASNLETGVPSRFSGSGSGTDFTLTISSLQPEDFATYYCQQSYSTPLTFGGGTKVEIK
binds	binds	binds	binds	MAdCAM antibody Table 1 clone 59 (scFv) scFv: EVQLLESGGGLVQPGGSLRLSCAASGFTFSDFWMHWVRQAPGKGLEWISYISGDSGYTNYADSVKGRFTISRDNSKNTLYLQMNSLRAEDTAVYYCARDRPYYYYMDVWGKGTTVTVSSGGGGSGGGGSGGGGSGGGGSDIQMTQSPSSLSASVGDRVTITCRASQSVSRSLAWYQQKPGKAPKLLIYAASSLQSGVPSRFSGSGSGTDFTLTISSLQPEDFATYYCQQYKSYPVTFGQGTKVEIK
binds	binds	binds		MAdCAM antibody Table 1 clone 66 (scFv) scFv: EVQLLESGGGLVQPGGSLRLSCAASGFTFSSYWMHWVRQAPGKGLEWVAAISYDGKYKDYEDSVKGRFTISRDNSKNTLYLQMNSLRAEDTAVYYCARENKQWLASFDYWGQGTLVTVSSGGGGSGGGGSGGGGSGGGGSDIQMTQSPSSLSASVGDRVTITCQASQDISNFVNWYQQKPGKAPKLLIYAANLRSGVPSRFSGSGSGTDFTLTISSLQPEDFATYYCQQANSFPVTFGPGTKVDIK
